3 substances from article PMC5181381 can be followed below.

For assay [1], the target named is non-lipidated Gβ1γ2 dimer (UniProt P62873). Briefly: SEC; purified mini-Gs399 mixed with non-lipidated Gβ1γ2 dimer in an equimolar ratio, on ice 4 h; Superdex-200 10/300; 10 mM HEPES pH 7.5, 100 mM NaCl, 1 mM MgCl2, 1 μM GDP, 0.1 mM TCEP.
Assay [2] concerns the target truncated form of turkey β1-adrenergic receptor, β1AR^∆NC (turkey) (UniProt P07700).
Assay [3] deals with minimally thermostabilised turkey β1AR construct β1AR-84 (turkey) (UniProt P07700).
In assay [4] the target is truncated form of turkey β1-adrenergic receptor, β1AR^∆NC (turkey) (UniProt P07700). This is another data set of the same source.
Assay [5] has the same target. In words: SEC; purified β1AR^∆NC in LMNG mixed with a 1.2-fold molar excess of mini-Gs393, on ice 4 h; Superdex-200 10/300; 10 mM HEPES pH 7.5, 100 mM NaCl, 1 mM MgCl2, 1 μM ascorbic acid, 1 μM isoprenaline, 0.002% LMNG; peak fractions analysed by SDS-PAGE.

Turning to mini-Gs399 (domain or fragment), the stoichiometry N in assay [1] was 1.
On to “soluble heterotrimeric Gs in the presence of the nanobody Nb35 (from UniProt P63092 1-394; P62873 1-340; P59768 1-71) (complex)”, for which the Apparent Tm of β1AR^∆NC in DDM, measured by ^3H-NE binding (°C) in assay [2] came out at 35.8 °C. Moreover, the fold increase of the isoprenaline affinity of membrane-embedded β1AR-84 (competition with 3H-DHA, 25 μM binding partner, 20°C) in assay [3] was found to be 162 fold. In addition, in assay [4], the fold shift of the isoprenaline affinity of membrane-embedded β1AR^∆NC (competition with 3H-DHA, 25 μM binding partner, 20°C) was determined as 6 fold.
Regarding “Mini-Gs393 (final mini-Gs construct) (domain or fragment)”, in assay [2], the Apparent Tm of β1AR^∆NC in DDM, measured by ^3H-NE binding (°C) came to 34.1 °C. Besides, the stoichiometry N in assay [5] came to 1.
